This note sets out measurements from patent US20250019435A1 (ALBERT EINSTEIN COLLEGE OF MEDICINE, published 2025).

What is called Kd is the equilibrium constant for the complex coming apart. Read a high Kd as weaker binding. Usually koff stands for a measure of how fast the partners let go of each other. Higher therefore signals fast dissociation. The term kon denotes the rate constant with which the complex forms. Lower therefore signals slow association.

Positions count from the first letter of the chain named. Names may count otherwise.

B1: anti-KIR2DL5 mAb clone B33C12 (antibody, V domains shown)
VH: QVQLQQSGAELVKPGASVKMSCKAFGYTFTSFPIEWMKQNHGKSLEWIGNFHPSNDDTKYNEKFNGKAKLTAETSSKTVYLELSRLTSDDSAVYYCARGSDYSFALDYWGQGTSVTVSS
VL: GIVLTQSPASLAVSLGQRATISCRASESVDSYGYSFMHWYQQKPGQPPKLLIYRASNLKSGIPARFSGSGSRTDFTLTINPVEADDVATYYCQQSNEDPWTFGGGTKLEIK
notes: also called B33C12 (IgG2a, κ)
B2: anti-KIR2DL5 mAb clone B11B4 (antibody, V domains shown)
VH: B1 VH with A9G, S54Y, S91C, A92S, A105G
VL: GIVLTQSPASLVVSLGQRATISCRASESVDSYGYSFMHWYQQKPGQPPKLLIYRASNLKSGIPARFSGSGCRTDFTLTINPVEADDVATYYCQQSNEDPWTFGGGTKAGN
notes: also called B11B4 (IgG2b, κ)
B3: D0-deleted KIR2DL5 expressed on 3T3 cells (receptor)
chain: GLFGKPSLSAQPGPTVRTGENVTLSCSSRSSFDMYHLSREGRAHEPRLPAVPSVNGTFQADFPLGPATHGGTYTCFGSLHDSPYEWSDPSDPLLVSVTGNSSSSSSSPTEPSSKTGIRRHLHILIGTSVAIILFIILFFFLLHCCCSNKKNAAVMDQEPAGDRTVNREDSDDQDPQEVTYAQLDHCVFTQTKITSPSQRPKTPPTDTTMYMELPNAKPRSLSPAHKHHSQALRGSSRETTALSQNRVASSHVPAAGI
notes: the signal peptide 1-21 is left out; also called KIR2DL5 dD0; DO-deleted KIR2DL5
B4: D2-deleted KIR2DL5 expressed on 3T3 cells (receptor)
chain: HEGGQDKPLLSAWPSAVVPRGGHVTLLCRSRLGFTIFSLYKEDGVPVPELYNKIFWKSILMGPVTPAHAGTYRCRGSHPRSPIEWSAPSNPLVIVVTGNSSSSSSSPTEPSSKTGIRRHLHILIGTSVAIILFIILFFFLLHCCCSNKKNAAVMDQEPAGDRTVNREDSDDQDPQEVTYAQLDHCVFTQTKITSPSQRPKTPPTDTTMYMELPNAKPRSLSPAHKHHSQALRGSSRETTALSQNRVASSHVPAAGI
notes: also called KIR2DL5 dD2
B5: anti-KIR2DL5 mAb clone B2A18 (antibody, V domains shown)
VH: QIQLVQSGPEVKKPGETVKISCKASGYTFTKYGMNWVKQAPGKGLKWMGWINTNTGESTYAEDFKGRFAFSLETSANTAFLQINNLKNEDTAAYFCARWGPYGSSLYYGMDYWGQGTSVTVS
VL: DIQMTQSSSSFSISLGDRVTITCRASEDLYNRLAWYQQKPGNAPRLLISGATSLETGVPSRFSGSGSGKDFTLSIPSVQTEDVGTYYCQQYRYTPWTFGGGTTLN
notes: also called B2A18, (IgG1, κ)
B6: Y328F (receptor)
receptor chain: HEGGQDKPLLSAWPSAVVPRGGHVTLLCRSRLGFTIFSLYKEDGVPVPELYNKIFWKSILMGPVTPAHAGTYRCRGSHPRSPIEWSAPSNPLVIVVTGLFGKPSLSAQPGPTVRTGENVTLSCSSRSSFDMYHLSREGRAHEPRLPAVPSVNGTFQADFPLGPATHGGTYTCFGSLHDSPYEWSDPSDPLLVSVTGNSSSSSSSPTEPSSKTGIRRHLHILIGTSVAIILFIILFFFLLHCCCSNKKNAAVMDQEPAGDRTVNREDSDDQDPQEVTYAQLDHCVFTQTKITSPSQRPKTPPTDTTMFMELPNAKPRSLSPAHKHHSQALRGSSRETTALSQNRVASSHVPAAGI
notes: also called KIR2DL5 Y328F (ITSM mutant) on transduced primary NK cells

Test [1] deals with B3. The experiment in a line: flow cytometry, transduced 3T3 cells. An excerpt:
FIG. 15A-15E: Characterization of anti-KIR2DL5 specific monoclonal antibodies. (Related to FIGS. 8A-8D). (A) The protein sequence of KIR2DL5. The extracellular domain of KIR2DL5 was composed of tandem DO-D2 domains. The cytoplasmic tail of KIR2DL5 contained an immunoreceptor tyrosine-based inhibition motif (ITIM) and immunoreceptor tyrosine-based switch motif (ITSM). Domains were predicted and annotated based on UniProtKB (Q8N109). (B) The specificity of anti-KIR2DL5 mAbs. 3T3 cells transduced with indicated KIR family members were stained with 5 μg/ml of indicated anti-KIR2DL5 mAbs (open) or mIgG1 (shaded). (C, D) The affinity of anti-KIR2DL5 mAbs. C: Kinetic binding curves for F8B30 and B19C11. D: Data were acquired from kinetic binding curves detected by the Octet Red96 BLI instrument for indicated clones. (E) 3T3 cells transduced with DO-deleted (KIR2DL5 dD0) or D2-deleted KIR2DL5 (KIR2DL5 dD2) were stained with 5 μg/ml of indicated anti-KIR2DL5 mAbs. In B-E, data are representative of three independent experiments.
In general terms: A flow cytometer gives signals particle by particle.

Test [2] deals with T1, KIR2DL5-Ig fusion protein (KIR2DL5 extracellular domain fused to human IgG1 Fc) (human, UniProt Q8N109 22-240).
T1 construct: A D0-only fusion (H22-A128) also exists; also called KIR2DL5-human Ig fusion protein; KIR2DL5 DO-D2-Ig; not shown: human IgG1 Fc tag
The test is described as follows: BLI, Octet RED96; KIR2DL5-Ig captured on anti-human Fc biosensors, mAb in solution; global 1:1 fit. The protocol: Biolayer interferometry. The affinities of anti-KIR2DL5 mAbs were analyzed by biolayer interferometry using an Octet RED96 system (ForteBio, Pall LLC). Briefly, anti-human Fc capture biosensors (ForteBio, Pall LLC) were preloaded with KIR2DL5-Ig and then dipped into a solution containing mAb at 2-fold serial dilutions (from 200 to 1.5 μg/mL). Data were analyzed using Forte Pall (Port Washington, New York, USA) software 9.0. The global data fitting to a 1:1 binding model was used to estimate values for the Kₒₙ (association rate constant), Koff (dissociation rate constant), and KD (equilibrium dissociation constant).
(In general: BLI is a label-free optical method that tracks binding on a fibre tip over time.)

Test [3] concerns the target T2, KIR2DL5A*005 allele expressed on 3T3 cells (human).
T2 construct: also called 2D5A*005
The test is described as follows: flow cytometry, 3T3 cells expressing KIR2DL5 alleles, mAb 5 µg/ml.

A further test deals with T3, PVR-Ig fusion protein (UniProt P15151 27-343).
T3 construct: Bought (R&D Systems); also called PVR-Ig protein; not shown: Ig part, detected with anti-human IgG Fc
T3 sequence (looked up): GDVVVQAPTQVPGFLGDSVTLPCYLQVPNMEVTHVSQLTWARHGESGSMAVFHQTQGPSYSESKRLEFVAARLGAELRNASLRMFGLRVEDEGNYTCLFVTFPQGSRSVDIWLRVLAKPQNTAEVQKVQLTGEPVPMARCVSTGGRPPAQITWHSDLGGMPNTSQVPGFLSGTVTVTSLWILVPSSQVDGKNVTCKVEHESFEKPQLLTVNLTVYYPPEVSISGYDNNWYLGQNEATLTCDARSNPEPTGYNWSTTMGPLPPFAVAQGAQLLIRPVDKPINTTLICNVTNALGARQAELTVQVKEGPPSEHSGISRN
The test is described as follows: flow cytometry, PVR-Ig on transduced 3T3 cells. The protocol: FIG. 10A-E: Allelic polymorphism affected PVR binding of KIR2DL5. (A) Flow cytometric analysis of PVR-Ig or CD112-Ig (open) or control hIg (shaded) binding to KIR2DL5/3T3. (B) Flow cytometric analysis of PVR-Ig binding to KIR2DL5/3T3 in the presence of increasing concentrations of F8B30. (C) KIR2DL5 bound to different sites of PVR from other receptors. PVR-Ig protein was preincubated with indicated His-tagged protein and then stained KIR2DL5/3T3 cells. […] (D) Flow cytometric analysis of PVR-Ig (open) or control hIg (shaded) binding on 3T3 cells expressing WT, DO-deleted, or D2-deleted KIR2DL5. Parental 3T3 cells were used as a negative control. (E) Flow cytometric analysis of PVR-Ig or control hIg (shaded) binding on 3T3 cells expressing different KIR2DL5 alleles. In A-E, data are representative of 2 independent experiments.
Fusion protein cell binding assays. PVR-Ig, CD112-Ig, or hIgG (R&D Systems) was incubated with corresponding 3T3 cells on ice for 45 minutes, followed by incubation with APC- or PE-conjugated anti-human IgG Fc antibody (1:100; clone HP6017, BioLegend) on ice for 30 minutes. Cells were then acquired on an LSR II flow cytometer (BD Biosciences). In the anti-KIR2DL5 mAb blocking assay, KIR2DL5/3T3 cells were preincubated with a serial concentration of anti-KIR2DL5 mAb F8B30 or mIgG1 on ice for 30 minutes. […]

Test [4] addresses T4, PVR expressed on transduced cells (PVR-YFP) (UniProt P15151 21-417).
T4 construct: whole, on cells; On NIH 3T3 or Raji cells; also called PVR/3T3; PVR-YFP/3T3; not shown: YFP ('PVR-YFP ... fusion protein')
T4 sequence (looked up): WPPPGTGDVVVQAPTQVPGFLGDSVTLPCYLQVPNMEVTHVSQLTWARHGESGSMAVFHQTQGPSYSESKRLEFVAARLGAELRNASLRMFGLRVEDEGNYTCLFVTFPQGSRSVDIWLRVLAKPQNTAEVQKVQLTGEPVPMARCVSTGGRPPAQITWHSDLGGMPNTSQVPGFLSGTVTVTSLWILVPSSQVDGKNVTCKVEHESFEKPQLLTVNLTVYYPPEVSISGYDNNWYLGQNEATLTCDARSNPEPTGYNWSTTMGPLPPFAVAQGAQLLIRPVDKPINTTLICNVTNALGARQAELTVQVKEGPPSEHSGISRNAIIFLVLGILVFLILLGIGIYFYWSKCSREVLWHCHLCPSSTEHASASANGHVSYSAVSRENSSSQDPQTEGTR
The experiment in a line: confocal imaging of conjugates of transduced primary NK cells with PVR-YFP/Raji cells. The protocol:
The KIR2DL5⁻ primary NK cells were transduced with WT KIR2DL5 or the indicated mutants, and then examined for protein expression with F8B30 (open) or mIgG1 (shaded). NC, negative control. Data are representative of 2 independent experiments. (B and C) Transduced primary NK cells were treated with (+) or without (−) pervanadate (VO₄) for 5 minutes. Cell lysates were immunoprecipitated with anti-KIR2DL5 antibodies. Phospho-tyrosine (4G10), SHP-1, SHP-2, and total KIR2DL5 were detected by immunoblots (B). Quantification of p-Tyr, SHP-1, and SHP-2 association with WT or mutant KIR2DL5 in VO₄-treated NK cells (C). WCL, whole-cell lysates. (D) Representative imaging of cell conjugates acquired upon the indicated transduced primary NK and PVR/Raji cell contact followed by staining with anti-KIR2DL5 mAb and DAPI. Scale bars: […]. (E) Lysis of scramble control or PVR^KO A427 (top) and Jurkat (bottom) by WT or mutant KIR2DL5-transduced primary NK cells at the indicated E/T ratios. Data are mean for duplicate measurements and representative of 3 independent experiments with 3 different donors. In A, and B, data are representative of 3 independent experiments. *P<0.05, **P<0.01, ***P<0.001, ****P<0.0001, by 1-way ANOVA (C), or paired Student's t test (D).
NK-Raji conjugation assay. […] Cell mixtures were then loaded onto poly-L-lysine-precoated slides and fixed with 4% formaldehyde at RT for 15 minutes. After blocking with 5% normal goat serum at RT for 1 hour, cells were stained with 20 µg/mL anti-KIR2DL5 antibodies (a mixture of 8 homemade clones) at 4° C. overnight and then with goat anti-mIgG (H+L) Alexa Flour 647 (Invitrogen) at RT for 2 hours. The cells were permeabilized by 0.1% Triton X-100 at RT for 15 minutes and stained with Alexa Flour Plus 405 Phalloidin (Life Technologies) for 1 hour at RT. The slides were then mounted by Gold Antifade Mountant without DAPI (Life Technologies). The mean pixel intensity of synapse and non-synapse was respectively measured and statistically analyzed. Images were acquired by Leica SP8 confocal microscope and processed by ImageJ (NIH).

For the molecule B1, in test [1], the binding result is on record as “no binding (tested: 5 µg/ml)”. In test [2], this molecule came in with a Kd of 0.359 nM, a koff of 0.000299 s⁻¹ and a kon of 835000 M⁻¹ s⁻¹. In test [3], the binding result is recorded as “binds”.
For the molecule B2, the binding result in test [1] was “no binding (tested: 5 µg/ml)”. In test [2], this molecule registered a Kd of 0.245 nM, a koff of 0.000202 s⁻¹ and an on-rate (kon) of 825000 M⁻¹ s⁻¹.
B3: the binding result with PVR-Ig fusion protein is listed as “no binding”.
The same measure, in the same setting: under B4 stands “no binding”.
For B5, the binding result in test [1] is on record as “no binding (tested: 5 µg/ml)”. Further, in test [2], binding was characterised by a dissociation constant (Kd) of 0.104 nM, the koff turned out to be 0.000175 s⁻¹ and the kon is 1.68e+06 M⁻¹ s⁻¹. In addition, in test [3], the binding result is on record as “binds”.
For the molecule B6, in test [4], the binding result is reported as “binds”.
